{"source": "patent US20260062488A1", "about": "(AbbVie / Abbott, published 2026)", "binders": {"B1": {"name": "Ab-h1.9d-WT (antibody, human IgG1, kappa)", "heavy": "not shown", "light": "DIQMTQSPSSLSASVGDRVTITCHASQDISDNIGWLQQKPGKSFKLLIYHGTNLEDGVPSRFSGSGSGTDYTLTISSLQPEDFATYYCVQYAQFPWTFGGGTKVEIKRTVAAPSVFIFPPSDEQLKSGTASVVCLLNNFYPREAKVQWKVDNALQSGNSQESVTEQDSKDSTYSLSSTLTLSKADYEKHKVYACEVTHQGLSSPVTKSFNRGEC", "notes": "IgG1/kappa with D356E and L358M (EU); also called Anti-human α4β7 (AC-166667) hu IgG1/k WT mAb"}}, "key": {"[1]": {"target": "T1, human FcγRI extracellular domain protein (human, UniProt P12314 16-292)", "T1 construct": "extracellular domain; also called hFcγRI", "T1 sequence (P12314 16-292)": "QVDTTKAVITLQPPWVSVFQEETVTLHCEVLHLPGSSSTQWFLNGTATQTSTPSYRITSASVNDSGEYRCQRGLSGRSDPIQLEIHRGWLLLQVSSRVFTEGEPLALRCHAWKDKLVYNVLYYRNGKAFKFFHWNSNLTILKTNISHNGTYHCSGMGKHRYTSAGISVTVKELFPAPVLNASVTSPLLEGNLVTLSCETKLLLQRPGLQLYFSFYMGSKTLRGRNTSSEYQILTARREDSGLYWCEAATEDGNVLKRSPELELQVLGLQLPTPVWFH", "assay": "SPR (Biacore), N = 1"}, "[2]": {"target": "T2, human FcγRIIa (H131) extracellular domain protein (human, UniProt P12318 34-217)", "T2 construct": "extracellular domain; also called hFcγRIIa (H131); FcγRIIa 131H", "T2 sequence (looked up)": "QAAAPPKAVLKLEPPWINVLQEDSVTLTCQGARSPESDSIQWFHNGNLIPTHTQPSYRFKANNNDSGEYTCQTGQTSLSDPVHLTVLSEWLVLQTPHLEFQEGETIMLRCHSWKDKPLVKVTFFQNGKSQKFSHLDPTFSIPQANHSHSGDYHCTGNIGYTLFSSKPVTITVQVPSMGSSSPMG", "assay": "SPR (Biacore), N = 1"}, "[3]": {"target": "T3, human FcγRIIa (R131) extracellular domain protein (human, UniProt P12318 34-217)", "T3 construct": "extracellular domain; also called hFcγRIIa (R131); FcγRIIa 131R", "T3 sequence (looked up)": "T2 sequence (looked up) with H134R", "assay": "SPR (Biacore), N = 1"}, "[4]": {"target": "T4, human FcγRIIb extracellular domain protein (human, UniProt P31994 43-217)", "T4 construct": "extracellular domain; also called hFcγRIIb", "T4 sequence (looked up)": "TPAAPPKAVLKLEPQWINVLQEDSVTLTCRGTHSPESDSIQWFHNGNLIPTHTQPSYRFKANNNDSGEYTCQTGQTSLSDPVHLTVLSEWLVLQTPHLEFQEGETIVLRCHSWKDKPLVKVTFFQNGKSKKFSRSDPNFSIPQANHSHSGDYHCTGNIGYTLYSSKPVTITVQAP", "assay": "SPR (Biacore), N = 1"}, "[5]": {"target": "T5, human FcγRIIIa (F158) extracellular domain protein (human, UniProt P08637 17-208)", "T5 construct": "extracellular domain; also called hFcγRIIIa (F158); FcγRIIIa158F", "T5 sequence (P08637 17-208)": "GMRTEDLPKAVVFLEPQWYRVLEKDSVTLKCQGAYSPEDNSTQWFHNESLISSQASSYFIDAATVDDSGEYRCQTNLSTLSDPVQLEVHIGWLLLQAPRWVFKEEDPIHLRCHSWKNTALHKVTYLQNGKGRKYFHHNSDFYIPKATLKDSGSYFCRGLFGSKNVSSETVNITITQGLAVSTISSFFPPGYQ", "assay": "SPR (Biacore), N = 1"}, "[6]": {"target": "T6, human FcγRIIIa (V158) extracellular domain protein (human, UniProt P08637 17-208)", "T6 construct": "extracellular domain; also called hFcγRIIIa (V158); FcγRIIIa158V", "T6 sequence (P08637 17-208 F176V limits assumed)": "as the sequence (P08637 17-208) above, with F160V counted along it", "assay": "SPR (Biacore), N = 1"}, "[7]": {"target": "T7, cynomolgus FcγRI extracellular domain protein (cynomolgus monkey)", "T7 construct": "extracellular domain; also called Cyno FcγRI", "assay": "SPR (Biacore), N = 1"}, "[8]": {"target": "T8, cynomolgus FcγRIIa extracellular domain protein (cynomolgus monkey)", "T8 construct": "extracellular domain; also called Cyno FcγRIIa", "assay": "SPR (Biacore), N = 1"}, "[9]": {"target": "T9, cynomolgus FcγRIIb extracellular domain protein (cynomolgus monkey)", "T9 construct": "extracellular domain; also called Cyno FcγRIIb", "assay": "SPR (Biacore), N = 1"}, "[10]": {"target": "T10, cynomolgus FcγRIII extracellular domain protein (cynomolgus monkey, UniProt Q8SPW2 17-208)", "T10 construct": "extracellular domain; also called Cyno FcγRIII", "T10 sequence (Q8SPW2 17-208)": "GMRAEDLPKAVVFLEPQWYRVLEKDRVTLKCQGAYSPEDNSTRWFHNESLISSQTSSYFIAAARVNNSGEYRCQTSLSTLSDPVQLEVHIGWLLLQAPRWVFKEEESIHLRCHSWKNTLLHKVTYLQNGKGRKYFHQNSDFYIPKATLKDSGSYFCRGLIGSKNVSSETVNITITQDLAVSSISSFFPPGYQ", "assay": "SPR (Biacore), N = 1"}, "cynomolgus α4β7 integrin [11]": {"target": "T11, cynomolgus α4β7 integrin (cynomolgus monkey)", "T11 construct": "whole, on cells; On CHOK1-cα4β7 cells or cynomolgus blood lymphocytes; also called cα4β7; cyno α4β7", "assay": "FACS, cyno CD4+ naïve"}, "cynomolgus α4β7 integrin [12]": {"target": "T11, cynomolgus α4β7 integrin", "assay": "FACS, cyno CD4+ total"}, "cynomolgus α4β7 integrin [13]": {"target": "T11, cynomolgus α4β7 integrin", "assay": "FACS, cyno CD8+ naïve"}, "cynomolgus α4β7 integrin [14]": {"target": "T11, cynomolgus α4β7 integrin", "assay": "FACS, cyno CD8+ naïve", "remark": "listed apart in the source"}, "cynomolgus α4β7 integrin [15]": {"target": "T11, cynomolgus α4β7 integrin", "assay": "FACS, cyno CD8+ memory"}, "cynomolgus α4β7 integrin [16]": {"target": "T11, cynomolgus α4β7 integrin", "assay": "FACS, cyno CD4+ memory"}, "cynomolgus α4β7 integrin [17]": {"target": "T11, cynomolgus α4β7 integrin", "assay": "FACS, cyno CD8+ memory", "remark": "listed apart in the source"}, "rabbit α4β7 integrin": {"target": "T12, rabbit α4β7 integrin (rabbit)", "T12 construct": "whole, on cells; On rabbit PBMCs", "assay": "FACS, rabbit CD4+ T cells"}, "cynomolgus α4β7 integrin [18]": {"target": "T11, cynomolgus α4β7 integrin", "assay": "FACS, cynomolgus lymphocytes"}, "cynomolgus α4β7 integrin [19]": {"target": "T11, cynomolgus α4β7 integrin", "assay": "FACS, cyno CD4+ naïve T cells"}, "cynomolgus α4β7 integrin [20]": {"target": "T11, cynomolgus α4β7 integrin", "assay": "FACS, cyno CD8+ naïve T cells"}, "cynomolgus α4β7 integrin [21]": {"target": "T11, cynomolgus α4β7 integrin", "assay": "FACS, cyno total CD4+ T cells"}, "cynomolgus α4β7 integrin [22]": {"target": "T11, cynomolgus α4β7 integrin", "assay": "FACS, cynomolgus CD4+ T cells"}, "cynomolgus α4β7 integrin [23]": {"target": "T11, cynomolgus α4β7 integrin", "assay": "FACS, cyno CD4+ memory T cells"}, "cynomolgus α4β7 integrin [24]": {"target": "T11, cynomolgus α4β7 integrin", "assay": "FACS, cyno CD8+ memory T cells"}, "[25]": {"target": "T1, human FcγRI extracellular domain protein", "assay": "SPR (Biacore T200), His-tagged FcγR captured by anti-His, antibody injected"}, "[26]": {"target": "T2, human FcγRIIa (H131) extracellular …", "assay": "SPR (Biacore T200), His-tagged FcγR captured by anti-His, antibody injected"}, "[27]": {"target": "T5, human FcγRIIIa (F158) extracellular …", "assay": "SPR (Biacore T200), His-tagged FcγR captured by anti-His, antibody injected"}, "[28]": {"target": "T6, human FcγRIIIa (V158) extracellular …", "assay": "SPR (Biacore T200), His-tagged FcγR captured by anti-His, antibody injected"}}, "note": "Where a chain is given by its changes, count along the chain named. Numbers in names are those of the source.", "data": [{"binder": "B1", "values": [{"measurement": "Kd", "setting": "[1]", "result": 7, "unit": "nM"}, {"measurement": "Kd", "setting": "[2]", "result": 4000, "unit": "nM"}, {"measurement": "Kd", "setting": "[3]", "result": 5200, "unit": "nM"}, {"measurement": "Kd", "setting": "[4]", "result": 12000, "unit": "nM"}, {"measurement": "Kd", "setting": "[5]", "result": 3100, "unit": "nM"}, {"measurement": "Kd", "setting": "[6]", "result": 100, "unit": "nM"}, {"measurement": "Kd", "setting": "[7]", "result": 1.4, "unit": "nM"}, {"measurement": "Kd", "setting": "[8]", "result": 8200, "unit": "nM"}, {"measurement": "Kd", "setting": "[9]", "result": 7100, "unit": "nM"}, {"measurement": "Kd", "setting": "[10]", "result": 160, "unit": "nM"}, {"measurement": "EC50", "setting": "cynomolgus α4β7 integrin [11]", "result": 0.045, "unit": "nM"}, {"measurement": "EC50", "setting": "cynomolgus α4β7 integrin [12]", "result": 0.03, "unit": "nM"}, {"measurement": "EC50", "setting": "cynomolgus α4β7 integrin [13]", "result": 0.042, "unit": "nM"}, {"measurement": "EC50", "setting": "cynomolgus α4β7 integrin [14]", "result": 0.042, "unit": "nM"}, {"measurement": "EC50", "setting": "cynomolgus α4β7 integrin [15]", "result": 0.036, "unit": "nM"}, {"measurement": "EC50", "setting": "cynomolgus α4β7 integrin [16]", "result": 0.01, "unit": "nM"}, {"measurement": "EC50", "setting": "cynomolgus α4β7 integrin [17]", "result": 0.036, "unit": "nM"}, {"measurement": "EC50", "setting": "rabbit α4β7 integrin", "result": 0.097, "unit": "nM"}, {"measurement": "EC50", "setting": "cynomolgus α4β7 integrin [18]", "result": 0.062, "unit": "nM"}, {"measurement": "EC50", "setting": "cynomolgus α4β7 integrin [19]", "result": 0.045, "unit": "nM"}, {"measurement": "EC50", "setting": "cynomolgus α4β7 integrin [20]", "result": 0.042, "unit": "nM"}, {"measurement": "EC50", "setting": "cynomolgus α4β7 integrin [21]", "result": 0.03, "unit": "nM"}, {"measurement": "EC50", "setting": "cynomolgus α4β7 integrin [22]", "result": 0.03, "unit": "nM"}, {"measurement": "EC50", "setting": "cynomolgus α4β7 integrin [23]", "result": 0.01, "unit": "nM"}, {"measurement": "EC50", "setting": "cynomolgus α4β7 integrin [24]", "result": 0.036, "unit": "nM"}, {"measurement": "Kd", "setting": "[25]", "result": 16, "unit": "nM"}, {"measurement": "Kd", "setting": "[26]", "result": 5600, "unit": "nM"}, {"measurement": "Kd", "setting": "[27]", "result": 4600, "unit": "nM"}, {"measurement": "Kd", "setting": "[28]", "result": 480, "unit": "nM"}]}]}
